Measurements as given in the DeepSol protein solubility set.

Test: soluble on expression in E. coli; label from the status in PepcDB or PDB records

Sequence	soluble on expression in E. coli
MGSSHHHHHHSSGLVPRGSHMLKQKELIANVKNLTESDERITACMMYGSFTKGEGDQYSDIEFYIFLKHSITSNFDSSNWLFDVAPYLMLYKNEYGTEVVIFDNLIRGEFHFLSEKDMNIIPSFKDSGYIPDTKAMLIYDETGQLENYLSEISGARPNRLTEENANFLLCNFSNLWLMGINVLKRGEYARSLELLSQLQKNTLQLIRMAEKNADNWLNMSKNLEKEISLENYKKFAKTTARLDKVELFEAYKNSLLLVMDLQSHLIEQYNLKVTHDILERLLNYISE	soluble
MGSSHHHHHHSSGLVPRGSHMNSILITGCNRGLGLGLVKALLNLPQPPQHLFTTCRNREQAKELEDLAKNHSNIHILEIDLRNFDAYDKLVADIEGVTKDQGLNVLFNNAGIAPKSARITAVRSQELLDTLQTNTVVPIMLAKACLPLLKKAAKANESQPMGVGRAAIINMSSILGSIQGNTDGGMYAYRTSKSALNAATKSLSVDLYPQRIMCVSLHPGWVKTDMGGSSAPLDVPTSTGQIVQTISKLGEKQNGGFVNYDGTPLAW	soluble
MGSSHHHHHHSSGLVPRGSHMSNQEAIGLIDSGVGGLTVLKEALKQLPNERLIYLGDTARCPYGPRPAEQVVQFTWEMADFLLKKRIKMLVIACNTATAVALEEIKAALPIPVVGVILPGARAAVKVTKNNKIGVIGTLGTIKSASYEIAIKSKAPAIEVTSLACPKFVPIVESNQYRSSVAKKIVAETLQALQLKGLDTLILGCTHYPLLRPVIQNVMGSHVTLIDSGAETVGEVSMLLDYFDIAHTPEAPTQPHEFYTTGSAKMFEEIASSWLGIENLKAQQIHLGGNEND	soluble
MGSSHHHHHHSSGLVPRGSHMYETYHSGWIECITGSMFSGKSEELIRRLRRGIYAKQKVVVFKPAIDDRYHKEKVVSHNGNAIEAINISKASEIMTHDLTNVDVIGIDEVQFFDDEIVSIVEKLSADGHRVIVAGLDMDFRGEPFEPMPKLMAVSEQVTKLQAVCAVCGSSSSRTQRLINGKPAKIDDPIILVGANESYEPRCRAHHIVAPSDNNKEEL	soluble
MGSSHHHHHHSSGLVPRGSMAELSEEALLSVLPTIRVPKAGDRVHKDECAFSFDTPESEGGLYICMNTFLGFGKQYVERHFNKTGQRVYLHLRRTRRPKEEDPATGTGDPPRKKPTRLAIGVEGGFDLSEEKFELDEDVKIVILPDYLEIARDGLGGLPDIVRDRVTSAVEALLSADSASRKQEVQAWDGEVRQVSKHAFSLKQLDNPARIPPCGWKCSKCDMRENLWLNLTDGSILCGRRYFDGSGGNNHAVEHYRETGYPLAVKLGTITPDGADVYSYDEDDMVLDPSLAEHLSHFGIDMLKMQKTDKTMTELEIDMNQRIGEWELIQESGVPLKPLFGPGYTGIRNLGNSCYLNSVVQVLFSIPDFQRKYVDKLEKIFQNAPTDPTQDFSTQVAKLGHGLLSGEYSKPVPESGDGERVPEQKEVQDGIAPRMFKALIGKGHPEFSTNRQQDAQEFFLHLINMVERNCRSSENPNEVFRFLVEEKIKCLATEKVKYTQRVDYIMQLPVPMDAALNKEELLEYEEKKRQAEEEKMALPELVRAQVPFSSCLEAYGAPEQVDDFWSTALQAKSVAVKTTRFASFPDYLVIQIKKFTFGLDWVPKKLDVSIEMPEELDISQLRGTGLQPGEEELPDIAPPLVTPDEPKAPMLDESVIIQLVEMGFPMDACRKAVYYTGNSGAEAAMNWVMSHMDDPDFANPLILPGSSGPGSTSAAADPPPEDCVTTIVSMGFSRDQALKALRATNNSLERAVDWIFSHIDDLDAEAAMDISEGRSAADSISESVPVGPKVRDGPGKYQLFAFISHMGTSTMCGHYVCHIKKEGRWVIYNDQKVCASEKPPKDLGYIYFYQRVAS	soluble
MGSSHHHHHHSSGLVPRGSTYKLTLIRHGESEWNKENRFTGWTDVSLSEQGVSEAIEAGRMLLEKGFKFDVVYTSVLKRAIMTTWTVLKELGNINCPIINHWRLNERHYGALQGLNKSETASKFGEDQVKIWRRSFDVPPPVLEKSDPRWPGNELIYKGICPSCLPTTECLKDTVERVKPYFEDVIAPSIMSGKSVLVSAHGNSLRALLYLLEGMTPEQILEVNIPTACPLVLELDDYLKVTKKYYLISEEELKAKMEAVANQGKAK	soluble
MGSSHHHHHHSSGRENLYFQGEYDYTDFINYYDKFKVIVYNVLKKLPLNDEIRKPVIEYYLNCIDYNVKKGKHIRGKILVLISSLSSAYSNIKRDSIYLLGWVVEAIQALILIADDIMDSGKFRRGAPCWYIVHGQSNAINDIFFLKMLSLSLIFELSSVFGNDIVMKIQKIYNESIFFTVLGQHLDLSYFDLSKADKISERYFSMVEMKTSRYTFYMPVFFGLTLSEIQVSSAQLNLIEAILYKLGEFYQVHNDVSDYLFNDSNADDICRFKLTWPLQKSFEIADEEMKLKISENYGKNSSLVKDCYNLLKINEHYLEYQRNALDYLIKLVKDITDDSLQKVFIHLIHQISELITNSRSNADSNNSL	soluble
MGSSHHHHHSSGENLYFQGHMKHGIYYSYWEHEWSAKFGPYIEKVAKLGFDIIEVAAHHINEYSDAELATIRKSAKDNGIILTAGIGPSKTKNLSSEDAAVRAAGKAFFERTLSNVAKLDIHTIGGALHSYWPIDYSQPVDKAGDYARGVEGINGIADFANDLGINLCIEVLNRFENHVLNTAAEGVAFVKDVGKNNVKVMLDTFHMNIEEDSFGDAIRTAGPLLGHFHTGESNRRVPGKGRMPWHEIGLALRDINYTGAVIMEPFVKTGGTIGSDIKVWRDLSGGADIAKMDEDARNALAFSRFVLGG	soluble
MGTETVSFKWEGKKVAQVNGVTAEKVWSVFSDFCNVQEWFPSVDTCYRVQGTDGVPGLIRYCSTTKTKEEGSRWAKEKLVKIDPIGRCLSYEILENNVGFRSYVATVQVTPVDGEDQVSRIEWSFVADPVDGWKKEDLESYVDFCLQHMANKMELNL	soluble
MGTHMYSEQGINNTINISTTSLTNATQLTVIGNNNSVYIGNNCKIVSSNIRLKGNNITLFIADDVEIMGLVCSLHSDCSLQIQAKTTMGNGEITIAEKGKISIGKDCMLAHGYEIRNTDMHPIYSLENGERINHGKDVIIGNHVWLGRNVTILKGVCIPNNVVVGSHTVLYKSFKEPNCVIAGSPAKIVKENIVWGRKMYHSTMYDDPTLNEFYK	soluble
MGTITGEFTEHSAEAIAAMLSYIVQTEYEKKQLAKDTLQKYEEVVFLSQFANAVATCTGLQELIEVIRAEIRQVISVDEIFLYLYDQSQDSLTPLLYKTEESLQNFKAIEKIVERVLKLNQVEVIDDIQNDQDYLNQPSKIRSLLCYSLTVQNSIIGVLGLAHYQVKHFDSSDLNLFSTLTGQVAAAIRTAQYYETIKNYSQTLEIRLEHHHHHH	not soluble
MGTSGCTVDTSRRDKVRMALPHAELEQARMDNLTRHVAQNFLREPQVVGEPNDSGVAVSQLLFEKSDTVVISDREIHHQLRAASIAVVAHAPMLLMDDTDRDAVQAEIGRLGARYILAIGDVGLPKTTGNVKVIPDSGSLTALGKLTSLQFRTQRIDVSNALSAVSRLDGTHPMWLLTNRQEKVQSSPSDGEVSAFPVQSRRDAGAAPQVIATQESGIAAVATARSYGASVTVMRFPDPRLNVESMRAVAGLSDQPLIALGSQFGTSQQLSERIELGERAPLALPHKTGLVFALRTLRARYLNDSDVSEHVDIPYGANYVRTIAHPLSSQDQQDWKAWADAINAQDGFVFIEIDAVHRDADEILDSVEEIVSQPSIGVILRNAAQVCARSPQSRQRIADRLMHWNSEVINHNGDQLGVVLEGVDILRGGVCGISPQELMGLGLAILPARGEHLGGDATVNSQLYWDDWFVAERESFQPTGTLRSPRLGLIIRD	not soluble
MGVANDSSPEYRWMSPHRLSDTVILGDCLYFNNIMSQLDLHQNWAPSVRLLNYFKNFNKETLLKIEENDYINSSFFQQKDKRFYPINDDFYHISTGGYGIVFKIDNYVVKFVFEATKLYSPMETTAEFTVPKFLYNNLKGDEKKLIVCAWAMGLNYKLTFLHTLYKRVLHMLLLLIQTMDGQELSLRYSSKVFLKAFNERKDSIKFVKLLSHFYPAVINSNINVINYFNRMFHFFEHEKRTNYEYERGNIIIFPLALYSADKVDTELAIKLGFKSLVQYIKFIFLQMSLLYIKIYELPCCDNFLHADLKPDNILLFDSNEPIIIHLKNKKFVFNERIKSALNDFDFSQVAGIINKKIKNNFKVEHNWYYDFHFFVHTLLKTYPEIEKDIEFSTALEEFIMCTKTDCDKYRLKVSILHPISFLEKFIMRDIFSDWINGGN	not soluble
MGVDNFSTTKKMFTWEVPGERVITLMTAGNLATTQALISLLEERSKTPSERSPSILERPTMFEVARLVGATLKEVIADTAGTGQVASSQFKASVIVGGQVKGGLPTLFLIYPEGNFIEVTEDSPFFQIGEAKYGKPILVRAYDPDLSFEDTIRLLMVSFDSTIKANLSVGLPLDLQVYANDSFAIKEQSRVEADDAYFQSISERWGDALRKALSDLPPYKSLLEHHHHHH	not soluble
MGVERIKAAFENGKKAFIPYVMGGDGGLEILKERIRFLDEAGASIVEIGIPFSDPVADGPTIQRAGKRALDSGVTVKGIFQALIEVRKEVQIPFVLMTYLNPVLAFGKERFIENCMEAGVDGIIVPDLPYEEQDIIAPLLREANIALIPLVTVTSPIERIKKITSESEGFVYAVTVAGVTGVRQNFKDEIHSYLEKVKSHTHLPVVAGFGISTKEHVEEMVTICDGVVVGSKVIELLENEKREEICEFIQATKQKEEA	not soluble
MGVFTFQDEYTSTIAPAKLYKALVTDADIIIPKAVETIQSVEIVEGNGGPGTIKKLTFIEGGESKYVLHKIEAIDEANLGYNYSIVGGVGLPDTIEKISFETKLVEGANGGSIGKVTIKIETKGDAQPNEEEGKAAKARGDAFFKAIESYLSAHPDYN	soluble
MGVISAYAVVHERAAIIDPGTAKGAEIILDEIDRSWNVEYICPTHIHIDHGGGAARLAKALDAKIIVHPRGVKHVVNPEKLWEASKAVLGEVAEIYGKPESIDESKVIAVEDEQEFDLGGERLKVFHAPGHAPHMLVYYLTNSKVLFPADAVGMCFGGVVFPLTPPPFDADAALKTLKRLKGLKVDYVAFTHYGVVELEHHHHHH	soluble
MGVSLAKGGNVSLSKEAPGLTAVLVGLGWDVRTTTGTDYDLDASALLLDTSGKVLSDGHFVFYNNLTSPDGSVEHTGDNLTGEGEGDDEAVKVNLVAVPAEVDRIVFPVSIHDAENRGQSFGQVRNAFIRVVNQANNQELARYDLSEDASTETAMVFGELYRHGAEWKFRAVGQGYASGLAGIAADFGVNV	not soluble
MGVSRVLHVEGGTPLKGELRVYPAKNAALPILAASLLTPEPITLVEVPRLRDVEVMLELLAHLGTQYAWEGRTLHLQTPEIKSTHAPYELVGQMRASFIVWGALLARAGEGHVSMPGGCAFGFRPVDQHIKALEALGAEVWEEDGTFHARRTRPLSGRVVFDLPTVGGTEQAMLAVALGGEATLVQAAVEPEVVDLGHFLALLGAEVEGLGSPIVRIKGAPRLKGGTYRIIPDRIEAGTYLLAAAATRGSLTLEGVRPDHLDALLDKLWRSGHRLEVGEDWIRFRATPDPAPFHVEAREYPGFPTDLQPIATAYLATVPGQSTVVDRIYPDRFTHVGELARMGAELYLRDRILTVQGRRLHGAQVKALDIRAGGALVVAALSAEGASEIEGVYFLERGYEHLTERLQALGARVHLRESPVALAAD	soluble
